Test [1] addresses human CEACAM5 expressed on cancer cell lines (MKN-45, NCI-H441, SNU-16, SK-CO-1, LS174T) (human) (UniProt P06731). The test can be described thus: flow cytometry, NCI-H441 cells, 10 µg/mL antibody. In general terms: In flow cytometry, cells or beads pass a laser one at a time.
The target is the same in test [2]. The test can be described thus: flow cytometry, MKN-45 cells, 10 µg/mL antibody.

Sequence of human CEACAM5 expressed on cancer cell lines (MKN-45, NCI-H441, SNU-16, SK-CO-1, LS174T) (human) (P06731 35-685): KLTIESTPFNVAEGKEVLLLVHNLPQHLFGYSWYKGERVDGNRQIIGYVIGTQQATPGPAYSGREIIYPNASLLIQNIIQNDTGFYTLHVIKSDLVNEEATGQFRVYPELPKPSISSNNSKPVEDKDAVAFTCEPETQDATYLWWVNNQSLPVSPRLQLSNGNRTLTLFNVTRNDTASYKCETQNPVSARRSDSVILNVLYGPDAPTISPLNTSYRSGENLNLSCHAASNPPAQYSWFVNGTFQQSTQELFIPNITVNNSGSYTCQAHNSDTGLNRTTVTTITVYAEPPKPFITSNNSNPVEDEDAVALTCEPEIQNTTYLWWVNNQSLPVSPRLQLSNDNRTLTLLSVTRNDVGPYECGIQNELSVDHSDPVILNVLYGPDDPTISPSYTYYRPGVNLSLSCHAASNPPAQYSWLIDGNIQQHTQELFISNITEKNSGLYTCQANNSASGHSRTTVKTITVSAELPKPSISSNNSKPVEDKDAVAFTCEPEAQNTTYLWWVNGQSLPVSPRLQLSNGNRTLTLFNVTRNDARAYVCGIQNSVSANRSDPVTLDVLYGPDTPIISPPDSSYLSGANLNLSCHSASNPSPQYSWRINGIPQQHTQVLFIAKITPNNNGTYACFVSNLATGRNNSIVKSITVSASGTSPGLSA

On to “mouse monoclonal anti-CEACAM5 antibody Agilent Dako #M7072 clone II7”, for which the quotient of MFI of antibody divided by MFI of secondary antibody only control stood at 1.1 in test [1] and 3.8 in test [2].

(Values after US20240010749A1.)
